Experimental data as given in patent publication US20170355757A1 (Regeneron, published 2017).
Residue numbers refer to the chain shown, from its start. Names may count otherwise.

B1: H4H12166P6 (antibody, human IgG4, V domains shown)
VH: QVQLQESGPGLVKPSETLSLTCTVSGDSVSSSYWTWIRQPPGKGLEWIGYIYYSGSSNYNPSLKSRATISVDTSKNQFSLKLSSVTAADTAVYYCAREGNVDHTMIFDYWGQGTLVTVSS
VL: AIQMTQSPSSLSASVGDRVTITCRASQGIRNDLGWYQQKPGKAPKLLIYAASSLQSGVPSRFAGRGSGTDFTLTISSLQPEDFATYYCLQDFNYPWTFGQGTKVEIK
notes: histidine-mutated CDR variant of H4H12166P; human IgG4 (S108P)
B2: H4H12166P7 (antibody, human IgG4, V domains shown)
VH: B1 VH with G99H, H103T
VL: B1 VL with T97H
notes: as for B1
B3: H4H12166P9 (antibody, human IgG4, V domains shown)
VH: B1 VH
VL: B1 VL with T97H
notes: as for B1
B4: H4H12166P8 (antibody, human IgG4, V domains shown)
VH: B1 VH
VL: B1 VL with L89H
notes: as for B1
B5: H4H12166P10 (antibody, human IgG4, V domains shown)
VH: B1 VH with H103T, F107H
VL: B1 VL with T97H
notes: as for B1

Experiments:
human C5 [1] = biological target: T1, human C5 (human, UniProt P01031 19-1676); assay: cell-based or functional assay
human C5 [2] = biological target: T1, human C5; assay: cell-based or functional assay; remark: listed apart in the source
human C5 R885H-mmh = human C5 R885H-mmh (human, UniProt P01031 19-1676); assay: cell-based or functional assay
African green monkey C5 = African green monkey C5 (African green monkey); assay: cell-based or functional assay
human C5 R885C-mmh = human C5 R885C-mmh (human, UniProt P01031 19-1676); assay: cell-based or functional assay
human C5 [3] = biological target: T1, human C5; assay: SPR (Biacore), mAb captured, dissociation of human C5 at pH7.4 vs pH6.0, 37°C
Method in brief: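 Anti-C5 mAbs (human IgG4 Fc) captured on an amine-coupled mouse anti-human Fc surface; recombinant C5 dissociation followed by Biacore T200 in PBS-T (0.01M phosphate, 0.15M NaCl, 0.05% Tween-20) at pH7.4 or pH6.0. Dissociative half-life (t½) calculated from kd.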

Binder | Human AP % Max Inhibition, hemolysis assay, 5% NHS (human C5 [1]) | Human AP IC50, hemolysis assay, 5% NHS (human C5 [1]) | Human CP % Max Inhibition, hemolysis assay, 5% NHS (human C5 [1]) | Human CP IC50, hemolysis assay, 5% NHS (human C5 [1]) | IC50, inhibition of CDC of Daudi cells, 1.66% human serum, 2 nM anti-CD20 antibody (human C5 [2]) | IC50, inhibition of CDC of Daudi cells, C5 depleted human serum and 6.6 nM C5 Variant R885H, 7 nM anti-CD20 antibody (human C5 R885H-mmh) | IC50, inhibition of CDC of Daudi cells, 1.66% African Green monkey serum, 10 nM anti-CD20 antibody (African green monkey C5) | IC50, inhibition of CDC of Daudi cells, C5 depleted human serum and 6.6 nM C5 Variant R885C, 30 nM anti-CD20 antibody (human C5 R885C-mmh) | t½ Ratio pH7.4/pH6.0 (human C5 [3]) | Max % Inhibition of CDC of Daudi cells, 1.66% African Green monkey serum, 10 nM anti-CD20 antibody (African green monkey C5)
B1 | 82.4% | 28.4 nM | 98.1% | 10.3 nM | 3 nM | 1.3 nM | 9.9 nM | 0.79 nM | 8.2 | 
B2 | 83.2% | 156 nM | 93.7% | 24.3 nM | 7.3 nM | 4.2 nM | > 60 nM | 2.3 nM | 21 | 61%
B3 | 72.2% | 53.5 nM | 93.7% | 11.6 nM | 3.9 nM | 1.7 nM | > 10 nM | 0.77 nM | 28 | 85%
B4 | 73.3% | 73 nM | 95.7% | 14.1 nM | 4.1 nM | 2.1 nM | > 20 nM | 1.2 nM | 36 | 79%
B5 |  |  | 74% | 44.4 nM | 12 nM | 7 nM | > 100 nM | 3.5 nM | 19 | 34%
